Measurements published in article PMC4249942 (Biochemistry, 2012).
Positions count from the first letter of the chain named. In names and notes the source's numbering stands.

B1: PerB (Caulobacter vibrioides) (protein)
chain: MSASLAIGGVVIIGGGGHAKVVIESLRACGETVAAIVDADPTRRAVLGVPVVGDDLALPMLREQGLSRLFVAIGDNRLRQKLGRKARDHGFSLVNAIHPSAVVSPSVRLGEGVAVMAGVAINADSWIGDLAIINTGAVVDHDCRLGAACHLGPASALAGGVSVGERAFLGVGARVIPGVTIGADTIVGAGGVVVRDLPDSVLAIGVPAKIKGDRS
B2: PerB (Caulobacter vibrioides; H141N) (protein)
chain: B1 chain with H141N
B3: PerB (Caulobacter vibrioides; H141A) (protein)
chain: B1 chain with H141A
B4: PerB (Caulobacter vibrioides; D142N) (protein)
chain: B1 chain with D142N

What was measured:
PerB [1] = molecular target: T1, PerB (Caulobacter vibrioides, UniProt O85353); assay: X-ray crystal structure, […] Å; format: binding
PerB [2] = molecular target: T1, PerB; assay: HPLC, ESI-MS and 1H NMR of the product; format: biochemical; conditions: acetyl CoA 1 mM, HEPES pH 7.5, 10 mM MgCl2, room temperature
discontinuous HPLC assay [3] = substrate: CC(=O)SCCNC(=O)CCNC(=O)[C@H](O)C(C)(C)COP(=O)(O)OP(=O)(O)OC[C@H]1O[C@@H](n2cnc3c(N)ncnc32)[C@H](O)[C@@H]1OP(=O)(O)O; assay: discontinuous HPLC assay; format: biochemical, Caulobacter vibrioides; conditions: pH 8.0, 25 °C, GDP-perosamine co-substrate
discontinuous HPLC assay [4] = substrate: C[C@H]1O[C@H](OP(=O)(O)OP(=O)(O)OC[C@H]2O[C@@H](n3cnc4c(=O)[nH]c(N)nc43)[C@H](O)[C@@H]2O)[C@@H](O)[C@@H](O)[C@@H]1N; assay: discontinuous HPLC assay; format: biochemical, Caulobacter vibrioides; conditions: pH 8.0, 25 °C, acetyl CoA co-substrate

| Molecule | Km (discontinuous HPLC assay [3]) [µM] | Km (discontinuous HPLC assay [4]) [µM] | also measured |
| --- | --- | --- | --- |
| CC(=O)N[C@H]1[C@H](O)[C@H](O)[C@@H](OP(=O)(O)OP(=O)(O)OC[C@H]2O[C@@H](n3cnc4c(=O)[nH]c(N)nc43)[C@H](O)[C@@H]2O)O[C@@H]1C [GDP-N-acetylperosamine] |  |  | X-ray crystal structure, 1.0 Å (PerB [1]; with CoA, formed by turnover in the crystal): The enzyme turned over, and CoA and GDP-N-acetylperosamine were left bound in the active site. |
| CC(C)(COP(=O)(O)OP(=O)(O)OC[C@H]1O[C@@H](n2cnc3c(N)ncnc32)[C@H](O)[C@@H]1OP(=O)(O)O)[C@@H](O)C(=O)NCCC(=O)NCCS [CoA] |  |  | X-ray crystal structure, 1.0 Å (PerB [1]; with GDP-perosamine): The first was that of the enzyme with bound CoA and GDP-perosamine. |
| C[C@H]1O[C@H](OP(=O)(O)OP(=O)(O)OC[C@H]2O[C@@H](n3cnc4c(=O)[nH]c(N)nc43)[C@H](O)[C@@H]2O)C(O)CC1N (some centres unmarked) [GDP-3-deoxyperosamine] |  |  | HPLC, ESI-MS and 1H NMR of the product (PerB [2]): Using GDP-3-deoxyperosamine, we were able to, indeed, show that PerB produces an acetylated form |
| B1 | 150 ± 20 | 87 ± 11 |  |
| B2 | 94 ± 17 | 150 ± 10 |  |
| B3 | 110 ± 10 | 200 ± 10 |  |
| B4 | 59 ± 7 | 110 ± 10 |  |
